Experimental findings from PMC11587861, “A high-throughput search for intracellular factors that affect RNA folding identifies E. coli proteins PepA and YagL as RNA chaperones that promote RNA remodelling” are described below.

For one data set, the target named is T1, PepA-H6 (Escherichia coli, UniProt P68767 1-503).
T1 sequence: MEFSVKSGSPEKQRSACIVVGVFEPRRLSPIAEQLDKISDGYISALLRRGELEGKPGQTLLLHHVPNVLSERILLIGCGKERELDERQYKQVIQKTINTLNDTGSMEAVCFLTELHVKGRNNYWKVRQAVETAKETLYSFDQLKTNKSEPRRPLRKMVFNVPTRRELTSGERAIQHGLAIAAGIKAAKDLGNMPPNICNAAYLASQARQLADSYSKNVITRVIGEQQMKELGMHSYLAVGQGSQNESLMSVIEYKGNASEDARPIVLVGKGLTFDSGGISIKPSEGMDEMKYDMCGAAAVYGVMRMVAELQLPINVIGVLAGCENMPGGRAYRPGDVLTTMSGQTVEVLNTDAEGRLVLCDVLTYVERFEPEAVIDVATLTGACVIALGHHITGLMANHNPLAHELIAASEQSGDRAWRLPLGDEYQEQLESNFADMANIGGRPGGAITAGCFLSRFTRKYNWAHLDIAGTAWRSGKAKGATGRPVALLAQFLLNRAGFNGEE
As to the kind of experiment: filter binding; 75 mM Tris-HCl pH 7.5, 0.4 mM spermidine, 0.1 mM MgCl2, 50 mM NaCl, 0.5 mM EDTA, 0.25 mM DTT, 6% glycerol; 10 min at room temperature; 50 fmol RNA in 60 µL, protein 0-10 µM. The conditions noted are these: protein: recombinant, tags: C-terminal His6, chain copies: 6, label: 5'-32P (printed as [31]P).

The target of another data set is T2, YagL-H6 (Escherichia coli, UniProt P77607 1-232).
T2 sequence: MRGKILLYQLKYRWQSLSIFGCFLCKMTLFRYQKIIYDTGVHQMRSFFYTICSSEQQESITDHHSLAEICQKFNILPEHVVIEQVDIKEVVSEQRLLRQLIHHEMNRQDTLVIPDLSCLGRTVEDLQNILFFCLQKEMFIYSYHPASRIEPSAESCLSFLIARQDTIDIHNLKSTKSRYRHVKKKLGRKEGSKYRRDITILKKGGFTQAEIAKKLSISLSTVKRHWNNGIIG
Described as above. The conditions noted are these: protein: recombinant, label: 5'-32P (printed as [31]P).

B1: 21 R+ (ssRNA)
RNA: AUGUGGAAAAUCUCUAGCAGU
As for B1, the Kd came to 2000 ± 600 nM in the data set with PepA-H6 (single strand) and 4500 ± 300 nM with YagL-H6 (single strand).

B2: hairpin (structured_RNA)
RNA: GCUCUAGAGCAUUAUGUUCAGAUAAGG
For B2, the Kd with PepA-H6 (hairpin) is 600 ± 400 nM; in the data set with YagL-H6 (hairpin), 2400 ± 300 nM.

B3: 21 R- (ssRNA)
RNA: CUGCUAGAGAUUUUCCACAU
Regarding B3, the figures for the Kd in the data set with PepA-H6 (single strand) and with YagL-H6 (single strand) were 600 ± 300 nM and 5000 ± 1200 nM, respectively.

One may read the Kd as the free concentration of one partner at which half of the binding sites on the other are occupied at equilibrium, for simple one-to-one binding.
